The data set has as its target T1, PsCas9 WT (UniProt PDB:8UMF_1 1-1462).
T1 sequence: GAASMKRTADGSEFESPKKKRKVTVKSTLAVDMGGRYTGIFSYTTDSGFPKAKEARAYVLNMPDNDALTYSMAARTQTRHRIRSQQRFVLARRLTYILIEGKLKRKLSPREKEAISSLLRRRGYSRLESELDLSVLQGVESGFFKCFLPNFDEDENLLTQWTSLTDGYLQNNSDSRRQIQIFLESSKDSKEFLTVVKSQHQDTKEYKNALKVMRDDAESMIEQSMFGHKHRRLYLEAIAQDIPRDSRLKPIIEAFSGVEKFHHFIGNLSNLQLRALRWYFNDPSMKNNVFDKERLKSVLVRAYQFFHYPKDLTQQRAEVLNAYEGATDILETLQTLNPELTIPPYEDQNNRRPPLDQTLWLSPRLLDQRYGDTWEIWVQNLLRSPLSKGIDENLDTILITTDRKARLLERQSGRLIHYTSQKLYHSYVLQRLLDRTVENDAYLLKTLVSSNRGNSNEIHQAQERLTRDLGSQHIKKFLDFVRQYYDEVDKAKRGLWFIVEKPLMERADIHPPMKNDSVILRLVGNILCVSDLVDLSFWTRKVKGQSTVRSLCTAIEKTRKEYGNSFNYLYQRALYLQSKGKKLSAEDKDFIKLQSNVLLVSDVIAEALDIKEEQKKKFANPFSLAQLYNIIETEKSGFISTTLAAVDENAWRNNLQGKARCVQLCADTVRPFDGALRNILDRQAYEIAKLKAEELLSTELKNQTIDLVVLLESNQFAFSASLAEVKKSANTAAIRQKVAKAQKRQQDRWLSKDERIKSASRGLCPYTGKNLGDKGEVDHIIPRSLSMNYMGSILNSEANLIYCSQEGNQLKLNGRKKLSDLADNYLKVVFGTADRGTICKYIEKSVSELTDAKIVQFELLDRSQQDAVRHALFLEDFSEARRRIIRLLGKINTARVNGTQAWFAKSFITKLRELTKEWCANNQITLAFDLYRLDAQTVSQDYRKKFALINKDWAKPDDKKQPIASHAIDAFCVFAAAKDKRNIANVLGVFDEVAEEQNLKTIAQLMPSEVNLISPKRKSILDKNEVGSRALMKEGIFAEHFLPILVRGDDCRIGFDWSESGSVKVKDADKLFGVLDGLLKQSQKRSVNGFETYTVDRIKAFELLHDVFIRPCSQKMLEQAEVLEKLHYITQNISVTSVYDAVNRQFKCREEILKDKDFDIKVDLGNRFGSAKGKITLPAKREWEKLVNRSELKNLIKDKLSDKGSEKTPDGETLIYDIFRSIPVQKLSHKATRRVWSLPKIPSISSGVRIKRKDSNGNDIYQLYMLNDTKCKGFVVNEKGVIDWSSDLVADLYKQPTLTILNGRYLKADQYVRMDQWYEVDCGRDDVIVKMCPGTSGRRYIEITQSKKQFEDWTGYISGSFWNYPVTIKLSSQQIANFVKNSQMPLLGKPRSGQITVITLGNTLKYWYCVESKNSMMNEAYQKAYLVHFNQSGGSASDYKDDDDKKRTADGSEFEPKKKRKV
Kind of data set: fluorescence polarization.

B1: EMX1a 38 bp target + PsCas9 original EMX1a sgRNA (mixed)
DNA 1: TGTATGTCACCTCCAATGACTAGGGTGGTACACAAACA
DNA 2: TGTTTGTGTACCACCCTAGTCATTGGAGGTGACATACA
In turn, B1 yielded a Kd of around 112 nM.

One may read the Kd as the constant that tells how readily two partners part at equilibrium.

Values taken from article PMC11544209.
